Measured values as given in patent publication US20240166768A1 (YEDA RESEARCH AND DEVELOPMENT, published 2024).
Values belong to the binder of their own block, whether it stands above or below them.

What was measured:
[1] = molecular target: T1, ROI-1 peptide of MMP14 (I-A loop); test: peptide validation ELISA: antibody plated, biotinylated peptide titrated, streptavidin-HRP; the concentration is that of the peptide
T1 construct: also called 'ROI-peptide'; 'Peptide (ROI)'

[2] = molecular target: BSA (bovine, UniProt P02769); test: dose-response ELISA, O.D. 630
BSA, sequence (P02769 25-607 limits assumed): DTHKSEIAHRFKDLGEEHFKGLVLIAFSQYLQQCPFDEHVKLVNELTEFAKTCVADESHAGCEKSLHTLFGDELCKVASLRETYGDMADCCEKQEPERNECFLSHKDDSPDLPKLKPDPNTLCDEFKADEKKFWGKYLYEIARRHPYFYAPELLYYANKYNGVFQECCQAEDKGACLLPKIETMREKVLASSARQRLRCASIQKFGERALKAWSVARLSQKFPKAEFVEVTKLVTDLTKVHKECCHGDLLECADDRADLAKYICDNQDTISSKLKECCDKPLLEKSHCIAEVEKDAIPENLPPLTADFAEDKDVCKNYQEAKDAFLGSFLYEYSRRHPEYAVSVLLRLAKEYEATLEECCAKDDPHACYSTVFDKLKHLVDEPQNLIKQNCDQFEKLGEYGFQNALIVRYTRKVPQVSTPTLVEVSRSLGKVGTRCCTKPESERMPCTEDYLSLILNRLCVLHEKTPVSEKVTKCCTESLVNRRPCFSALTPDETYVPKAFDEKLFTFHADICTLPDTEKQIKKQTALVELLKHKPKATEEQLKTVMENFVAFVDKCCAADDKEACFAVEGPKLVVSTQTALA
Protocol: ELISA reactions were carried out using flat-bottom MaxiSorp™ 96-well plates (Invitrogen). Antigen coating was performed in PBS at 1001 per well and left overnight at 4° C. For standard dose response ELISA assays, antigens were plated at a concentration of 1 μg/ml. For comparative ELISA assays with multiple antigen targets, antigens were plated at a constant molar concentration of 50 nM. The plates were washed 5 times with washing buffer (1×PBS with 0.05% Tween-20 (Sigma-Aldrich)) and incubated with 1001 blocking buffer (1×PBS with 1% BSA) for 1 h at room temperature. The blocking solution was subsequently replaced by serial dilutions of either mono- or polyclonal antibodies or serum samples for 2.5 h at RT. For standard dose response ELISA assays, antibodies were introduced over a range of dilutions whereas for ELISA screens, antibodies were introduced at 100 nM. Serum samples were assayed at a dilution of 1:100. Plates were washed 5 times with washing buffer and then incubated with anti-human IgG secondary antibody conjugated to horseradish peroxidase (HRP) (Jackson Immuno Research) in PBS at a 1:5,000 dilution. After washing the plates for additional 5 times, the plates were developed using TMB (Thermo Fisher) and absorbance was measured at 630 nm with an ELISA microplate reader (Synergy HTX plate reader, Biotek). […]

- EC50 (read off the curve) [1]: ~4 µg/mL
B1: T12 (antibody, human IgG1, V domains shown)
VH: EVQLVESGGGLVQPGGSLRLSCAASGFTFNNHDMHWVRQVTGKGLEWVSSIGNFGDTYYSGSVKGRFTISRQDAKNSLYLQMNRLRVGDTAVYYCARGRAVAGNPLDVWGKGTTVTVSS
VL: EIVMTQSPATLSVSPGETATLSCRANQTLYNNLAWYQQKPGQAPRLLIYSGSTRATGIPARFSGSGSGTEFSLTISSLQSEDFAVYYCQHYTPWPPYTFGQGTKVDFK

- binding result [2]: no binding (tested: about 500 nM)
B2: T13-GL (antibody, human IgG1, V domains shown)
VH: EVQLVESGGGLVQPGGSLRLSCAASGFTFSSYDMHWVRQATGKGLEWVSAIGTAGDTYYPGSVKGRFTISRENAKNSLYLQMNSLRAGDTAVYYCARGIAVAGFPLDVWGKGTTVTVSS
VL: not shown
notes: also called germline version of T13
